Test results taken from patent US20200297818A1 (ZEALAND PHARMA A S, published 2020).
*1 amine or outer side, *2 acyl side, *3 side chain or, on linkers, in order; H or OH if unused. Where no end group is shown, it is not given here. Side-chain parts run from the residue outwards. [ ]: non-standard residue; d: D form. The star is where a group is joined. C20 diacid = O=C(O)CCCCCCCCCCCCCCCCCCC(=O)*; C18 diacid = O=C(O)CCCCCCCCCCCCCCCCC(=O)*; γGlu = O=C(O)[C@H](CCC(=O)[*:2])N[*:1]; AEEA = NCCOCCOCC(=O)O; Aib = CC(C)(N)C(=O)O

T1: human GLP-2 receptor (hGLP2-R) (human, UniProt O95838 1-553)
T1 sequence (looked up): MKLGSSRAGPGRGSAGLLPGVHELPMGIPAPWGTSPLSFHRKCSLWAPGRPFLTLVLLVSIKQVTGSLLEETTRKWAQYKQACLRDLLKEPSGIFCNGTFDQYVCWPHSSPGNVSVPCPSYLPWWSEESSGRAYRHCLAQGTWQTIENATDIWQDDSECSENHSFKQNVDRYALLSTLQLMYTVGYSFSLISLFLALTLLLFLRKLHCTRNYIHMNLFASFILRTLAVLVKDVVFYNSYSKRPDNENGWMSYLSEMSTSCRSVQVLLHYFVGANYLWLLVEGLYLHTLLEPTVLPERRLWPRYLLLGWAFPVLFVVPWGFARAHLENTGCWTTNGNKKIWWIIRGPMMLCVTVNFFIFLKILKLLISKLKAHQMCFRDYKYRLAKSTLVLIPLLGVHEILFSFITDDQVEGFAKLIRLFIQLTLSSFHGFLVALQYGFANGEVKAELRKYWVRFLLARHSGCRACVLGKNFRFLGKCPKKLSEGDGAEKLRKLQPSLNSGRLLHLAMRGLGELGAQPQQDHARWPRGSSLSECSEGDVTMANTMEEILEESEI

B1: Compound 5 (peptide)
peptide: HXEGSFTSELATILDXKAARDFIAWLIEHKITD
HELM: PEPTIDE1{H.[Aib].E.G.S.F.T.S.E.L.A.T.I.L.D.K.K.A.A.R.D.F.I.A.W.L.I.E.H.K.I.T.D}|PEPTIDE2{[O=C(O)CCCCCCCCCCCCCCCCC(=O)[*:2]].[gGlu]}$PEPTIDE1,PEPTIDE2,16:R3-2:R2$$$V2.0
SMILES: CC[C@H](C)[C@H](NC(=O)[C@H](Cc1ccccc1)NC(=O)[C@H](CC(=O)O)NC(=O)[C@H](CCCNC(=N)N)NC(=O)[C@H](C)NC(=O)[C@H](C)NC(=O)[C@H](CCCCN)NC(=O)[C@H](CCCCNC(=O)CC[C@H](NC(=O)CCCCCCCCCCCCCCCCC(=O)O)C(=O)O)NC(=O)[C@H](CC(=O)O)NC(=O)[C@H](CC(C)C)NC(=O)[C@@H](NC(=O)[C@@H](NC(=O)[C@H](C)NC(=O)[C@H](CC(C)C)NC(=O)[C@H](CCC(=O)O)NC(=O)[C@H](CO)NC(=O)[C@@H](NC(=O)[C@H](Cc1ccccc1)NC(=O)[C@H](CO)NC(=O)CNC(=O)[C@H](CCC(=O)O)NC(=O)C(C)(C)NC(=O)[C@@H](N)Cc1c[nH]cn1)[C@@H](C)O)[C@@H](C)O)[C@@H](C)CC)C(=O)N[C@@H](C)C(=O)N[C@@H](Cc1c[nH]c2ccccc12)C(=O)N[C@@H](CC(C)C)C(=O)N[C@H](C(=O)N[C@@H](CCC(=O)O)C(=O)N[C@@H](Cc1c[nH]cn1)C(=O)N[C@@H](CCCCN)C(=O)N[C@H](C(=O)N[C@H](C(=O)N[C@@H](CC(=O)O)C(=O)O)[C@@H](C)O)[C@@H](C)CC)[C@@H](C)CC

The binders below were run against human glucagon-like peptide 1 receptor (GLP-1 R) (human, UniProt P43220 24-463) (assay: cell-based or functional assay).

| Binder | EC50 GLP-1 (nM); cAMP response |
| --- | --- |
| H-H[Aib]EGSFTSELATILDEQAAK([AEEA-Lys-Glu-Lys-γGlu-C20 diacid])DFIAWLIEHKITD-OH [Compound 64] | 0.49 nM |
| H[Aib]EGTFTSELATILDK([γGlu-C18 diacid])KAARDFIAWLIEHKITD-OH [Compound 6] | 0.058 nM |
| H-H[Aib]EGTFTSELATILDEQAAK([AEEA-Lys-Glu-Lys-γGlu-C20 diacid])DFIAWLIEHKITD-OH [Compound 65] | 0.13 nM |
| H-H[Aib]EGSFTSELATILDEQAAK([AEEA-AEEA-Lys-Glu-Lys-γGlu-C20 diacid])DFIAWLIEHKITD-OH [Compound 66] | 0.65 nM |
| H-H[Aib]EGTFTSELATILDEQAAK([AEEA-AEEA-Lys-Glu-Lys-γGlu-C20 diacid])DFIAWLIEHKITD-OH [Compound 67] | 0.16 nM |
| H[Aib]EGTFSSELATILDK([γGlu-C18 diacid])KAARDFIAWLIEHKITD-OH [Compound 4] | 0.66 nM |
| B1 | 0.17 nM |
| H-H[Aib]EGSFTSELATILDAKAAK([AEEA-Lys-Glu-Lys-γGlu-C20 diacid])DFIAWLIEHKITD-OH [Compound 68] | 0.084 nM |
| H-H[Aib]EGSFTSELATILDAK([AEEA-AEEA-Lys-Glu-Lys-γGlu-C20 diacid])AARDFIAWLIEHKITD-OH [Compound 63] | 0.31 nM |

The binders below were run against T1, human GLP-2 receptor (hGLP2-R) (assay: cell-based or functional assay).

| Binder | EC50 GLP-2 (nM); cAMP response |
| --- | --- |
| H-H[Aib]EGSFTSELATILDEQAAK([AEEA-Lys-Glu-Lys-γGlu-C20 diacid])DFIAWLIEHKITD-OH [Compound 64] | 0.2 nM |
| H[Aib]EGTFTSELATILDK([γGlu-C18 diacid])KAARDFIAWLIEHKITD-OH [Compound 6] | 0.12 nM |
| H-H[Aib]EGTFTSELATILDEQAAK([AEEA-Lys-Glu-Lys-γGlu-C20 diacid])DFIAWLIEHKITD-OH [Compound 65] | 0.35 nM |
| H-H[Aib]EGSFTSELATILDEQAAK([AEEA-AEEA-Lys-Glu-Lys-γGlu-C20 diacid])DFIAWLIEHKITD-OH [Compound 66] | 0.18 nM |
| H-H[Aib]EGTFTSELATILDEQAAK([AEEA-AEEA-Lys-Glu-Lys-γGlu-C20 diacid])DFIAWLIEHKITD-OH [Compound 67] | 0.22 nM |
| H[Aib]EGTFSSELATILDK([γGlu-C18 diacid])KAARDFIAWLIEHKITD-OH [Compound 4] | 0.087 nM |
| B1 | 0.063 nM |
| H-H[Aib]EGSFTSELATILDAKAAK([AEEA-Lys-Glu-Lys-γGlu-C20 diacid])DFIAWLIEHKITD-OH [Compound 68] | 0.1 nM |
| H-H[Aib]EGSFTSELATILDAK([AEEA-AEEA-Lys-Glu-Lys-γGlu-C20 diacid])AARDFIAWLIEHKITD-OH [Compound 63] | 0.17 nM |
